Laboratory results published in paper PMC8679000, “Biochemical Characterizations of Human TMPK Mutations Identified in Patients with Severe Microcephaly: Single Amino Acid Substitutions Impair Dimerization and Abolish Their Catalytic Activity” (ACS Omega, 2021).

B1: wild-type human deoxythymidylate kinase (TMPK) [human] / itself (parent)
chain: MAARRGALIVLEGVDRAGKSTQSRKLVEALCAAGHRAELLRFPERSTEIGKLLSSYLQKKSDVEDHSVHLLFSANRWEQVPLIKEKLSQGVTLVVDRYAFSGVAFTGAKENFSLDWCKQPDVGLPKPDLVLFLQLQLADAAKRGAFGHERYENGAFQERALRCFHQLMKDTTLNWKMVDASKSIEAVHEDIRVLSEDAIRTATEKPLGELWK

Variants of: B1
Assay: size-exclusion chromatography, protein concentration of fractions
Details: with itself, 200 µg enzyme loaded, 0.4 mL fractions
[1] = fraction F18 (monomer fraction)
[2] = fraction F19 (monomer fraction)
[3] = fraction F20 (monomer fraction)

| screen value (fraction F15 (dimer fraction)) [mg/mL] | screen value (fraction F16 (dimer fraction)) [mg/mL] | screen value [1] [mg/mL] | screen value [2] [mg/mL] | screen value [3] [mg/mL] | Variant |
| --- | --- | --- | --- | --- | --- |
| 0.006 | 0.01 | 0.019 | 0.015 | 0.012 | chain 1 A99T |
| 0.002 | 0.009 | 0.024 | 0.016 | 0.013 | chain 1 P81L |
| 0.004 | 0.005 | 0.016 | 0.019 | 0.012 | chain 1 D128N |
